The record followed here is patent publication US20250295737A1 (AstraZeneca / MedImmune, published 2025).

The labels stand for the following.
T1: human RXFP1 (human, UniProt Q9HBX9 1-757)
T1 sequence (looked up): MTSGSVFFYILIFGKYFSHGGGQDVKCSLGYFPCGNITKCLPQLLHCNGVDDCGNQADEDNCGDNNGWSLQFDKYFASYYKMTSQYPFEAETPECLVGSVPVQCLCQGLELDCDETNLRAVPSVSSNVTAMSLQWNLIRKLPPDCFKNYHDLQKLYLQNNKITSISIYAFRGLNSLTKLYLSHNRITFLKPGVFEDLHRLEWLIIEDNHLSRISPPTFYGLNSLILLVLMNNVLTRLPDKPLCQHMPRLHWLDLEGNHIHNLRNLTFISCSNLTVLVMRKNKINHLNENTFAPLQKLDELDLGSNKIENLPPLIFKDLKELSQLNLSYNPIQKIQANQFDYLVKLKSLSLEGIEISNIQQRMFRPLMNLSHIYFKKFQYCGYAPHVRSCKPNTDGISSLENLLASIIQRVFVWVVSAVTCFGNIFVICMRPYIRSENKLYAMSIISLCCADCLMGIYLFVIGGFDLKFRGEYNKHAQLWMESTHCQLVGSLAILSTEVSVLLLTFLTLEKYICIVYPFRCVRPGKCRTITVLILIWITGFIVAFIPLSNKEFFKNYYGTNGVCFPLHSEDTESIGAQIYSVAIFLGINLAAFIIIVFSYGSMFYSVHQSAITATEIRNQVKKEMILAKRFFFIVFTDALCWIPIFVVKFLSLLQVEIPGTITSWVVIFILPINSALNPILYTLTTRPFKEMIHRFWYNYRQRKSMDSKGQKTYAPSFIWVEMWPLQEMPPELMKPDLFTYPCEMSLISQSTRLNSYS

T2: mouse RXFP1 (mouse, UniProt Q6R6I7 1-758)
T2 sequence (looked up): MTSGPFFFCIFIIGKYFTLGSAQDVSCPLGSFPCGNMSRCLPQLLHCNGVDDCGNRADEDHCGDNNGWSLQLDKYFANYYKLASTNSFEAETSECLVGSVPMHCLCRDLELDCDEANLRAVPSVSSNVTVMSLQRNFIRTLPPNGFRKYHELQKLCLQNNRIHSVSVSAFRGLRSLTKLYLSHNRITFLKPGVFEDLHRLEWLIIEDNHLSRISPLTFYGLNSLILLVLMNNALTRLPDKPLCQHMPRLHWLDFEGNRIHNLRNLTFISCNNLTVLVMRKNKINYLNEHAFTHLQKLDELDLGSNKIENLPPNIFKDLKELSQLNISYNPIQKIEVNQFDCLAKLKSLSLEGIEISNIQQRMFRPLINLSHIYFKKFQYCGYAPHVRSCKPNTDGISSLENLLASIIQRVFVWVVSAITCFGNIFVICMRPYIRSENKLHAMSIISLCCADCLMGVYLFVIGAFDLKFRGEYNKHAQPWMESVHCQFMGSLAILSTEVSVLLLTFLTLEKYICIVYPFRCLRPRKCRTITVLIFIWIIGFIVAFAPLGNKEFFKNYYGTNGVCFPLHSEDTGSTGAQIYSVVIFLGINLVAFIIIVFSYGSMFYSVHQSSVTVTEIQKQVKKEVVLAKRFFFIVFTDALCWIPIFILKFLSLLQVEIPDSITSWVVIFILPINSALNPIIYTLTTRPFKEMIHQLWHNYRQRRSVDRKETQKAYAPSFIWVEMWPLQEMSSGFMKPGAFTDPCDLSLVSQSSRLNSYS

B1: RELAX0082 (Fc fusion)
chain 1: DKTHTCPPCPAPEFEGGPSVFLFPPKPKDTLMISRTPEVTCVVVDVSHEDPEVKFNWYVDGVEVHNAKTKPREEQYNSTYRVVSVLTVLHQDWLNGKEYKCKVSNKALPASIEKTISKAKGQPREPQVYTLPPCREEMTKNQVSLWCLVKGFYPSDIAVEWESNGQPENNYKTTPPVLDSDGSFFLYSKLTVDKSRWQQGNVFSCSVMHEALHNHYTQKSLSLSPGGGGGSGGGGGSQLYSALANKCCHVGCTKRSLARFC
chain 2: DKTHTCPPCPAPEFEGGPSVFLFPPKPKDTLMISRTPEVTCVVVDVSHEDPEVKFNWYVDGVEVHNAKTKPREEQYNSTYRVVSVLTVLHQDWLNGKEYKCKVSNKALPASIEKTISKAKGQPREPQVCTLPPSREEMTKNQVSLSCAVKGFYPSDIAVEWESNGQPENNYKTTPPVLDSDGSFFLVSKLTVDKSRWQQGNVFSCSVMHEALHNHYTQKSLSLSPGGGGGSGGGGGSSWMEEVIKLCGRELVRAQIAICGMSTWS
B2: RELAX0055 (Fc fusion)
chain 1: B1 chain 1 with G227A, G228P, G229A, G230P, S231A, G232P, G233A, G234P, G235A
chain 2: B1 chain 2 with G227A, G228P, G229A, G230P, S231A, G232P, G233A, G234P, G235A
B3: RELAX0083 (Fc fusion)
chain 1: DKTHTCPPCPAPEFEGGPSVFLFPPKPKDTLMISRTPEVTCVVVDVSHEDPEVKFNWYVDGVEVHNAKTKPREEQYNSTYRVVSVLTVLHQDWLNGKEYKCKVSNKALPASIEKTISKAKGQPREPQVYTLPPCREEMTKNQVSLWCLVKGFYPSDIAVEWESNGQPENNYKTTPPVLDSDGSFFLYSKLTVDKSRWQQGNVFSCSVMHEALHNHYTQKSLSLSPGGGGGGSQLYSALANKCCHVGCTKRSLARFC
chain 2: DKTHTCPPCPAPEFEGGPSVFLFPPKPKDTLMISRTPEVTCVVVDVSHEDPEVKFNWYVDGVEVHNAKTKPREEQYNSTYRVVSVLTVLHQDWLNGKEYKCKVSNKALPASIEKTISKAKGQPREPQVCTLPPSREEMTKNQVSLSCAVKGFYPSDIAVEWESNGQPENNYKTTPPVLDSDGSFFLVSKLTVDKSRWQQGNVFSCSVMHEALHNHYTQKSLSLSPGGGGGGSSWMEEVIKLCGRELVRAQIAICGMSTWS
B4: RELAX0054 (Fc fusion)
chain 1: DKTHTCPPCPAPEFEGGPSVFLFPPKPKDTLMISRTPEVTCVVVDVSHEDPEVKFNWYVDGVEVHNAKTKPREEQYNSTYRVVSVLTVLHQDWLNGKEYKCKVSNKALPASIEKTISKAKGQPREPQVCTLPPSREEMTKNQVSLSCAVKGFYPSDIAVEWESNGQPENNYKTTPPVLDSDGSFFLVSKLTVDKSRWQQGNVFSCSVMHEALHNHYTQKSLSLSPGAAPAPAPAPAPAPAGSQLYSALANKCCHVGCTKRSLARFC
chain 2: DKTHTCPPCPAPEFEGGPSVFLFPPKPKDTLMISRTPEVTCVVVDVSHEDPEVKFNWYVDGVEVHNAKTKPREEQYNSTYRVVSVLTVLHQDWLNGKEYKCKVSNKALPASIEKTISKAKGQPREPQVYTLPPCREEMTKNQVSLWCLVKGFYPSDIAVEWESNGQPENNYKTTPPVLDSDGSFFLYSKLTVDKSRWQQGNVFSCSVMHEALHNHYTQKSLSLSPGAAPAPAPAPAPAPAGSSWMEEVIKLCGRELVRAQIAICGMSTWS
B5: RELAX0081 (Fc fusion)
chain 1: DKTHTCPPCPAPEFEGGPSVFLFPPKPKDTLMISRTPEVTCVVVDVSHEDPEVKFNWYVDGVEVHNAKTKPREEQYNSTYRVVSVLTVLHQDWLNGKEYKCKVSNKALPASIEKTISKAKGQPREPQVYTLPPCREEMTKNQVSLWCLVKGFYPSDIAVEWESNGQPENNYKTTPPVLDSDGSFFLYSKLTVDKSRWQQGNVFSCSVMHEALHNHYTQKSLSLSPGGGGGSGGGGSGGGGGSQLYSALANKCCHVGCTKRSLARFC
chain 2: DKTHTCPPCPAPEFEGGPSVFLFPPKPKDTLMISRTPEVTCVVVDVSHEDPEVKFNWYVDGVEVHNAKTKPREEQYNSTYRVVSVLTVLHQDWLNGKEYKCKVSNKALPASIEKTISKAKGQPREPQVCTLPPSREEMTKNQVSLSCAVKGFYPSDIAVEWESNGQPENNYKTTPPVLDSDGSFFLVSKLTVDKSRWQQGNVFSCSVMHEALHNHYTQKSLSLSPGGGGGSGGGGSGGGGGSSWMEEVIKLCGRELVRAQIAICGMSTWS
B6: RELAX0109 (Fc fusion)
chain 1: B5 chain 1
chain 2: B4 chain 2
B7: RELAX0056 (Fc fusion)
chain 1: DKTHTCPPCPAPEFEGGPSVFLFPPKPKDTLMISRTPEVTCVVVDVSHEDPEVKFNWYVDGVEVHNAKTKPREEQYNSTYRVVSVLTVLHQDWLNGKEYKCKVSNKALPASIEKTISKAKGQPREPQVYTLPPCREEMTKNQVSLWCLVKGFYPSDIAVEWESNGQPENNYKTTPPVLDSDGSFFLYSKLTVDKSRWQQGNVFSCSVMHEALHNHYTQKSLSLSPGAPAPAPAPAPAPAPAPAPAGSQLYSALANKCCHVGCTKRSLARFC
chain 2: DKTHTCPPCPAPEFEGGPSVFLFPPKPKDTLMISRTPEVTCVVVDVSHEDPEVKFNWYVDGVEVHNAKTKPREEQYNSTYRVVSVLTVLHQDWLNGKEYKCKVSNKALPASIEKTISKAKGQPREPQVCTLPPSREEMTKNQVSLSCAVKGFYPSDIAVEWESNGQPENNYKTTPPVLDSDGSFFLVSKLTVDKSRWQQGNVFSCSVMHEALHNHYTQKSLSLSPGAPAPAPAPAPAPAPAPAPAGSSWMEEVIKLCGRELVRAQIAICGMSTWS

Residue numbers refer to the chain shown, from its start.

Chain of human RXFP2 (Q8WXD0 whole entry): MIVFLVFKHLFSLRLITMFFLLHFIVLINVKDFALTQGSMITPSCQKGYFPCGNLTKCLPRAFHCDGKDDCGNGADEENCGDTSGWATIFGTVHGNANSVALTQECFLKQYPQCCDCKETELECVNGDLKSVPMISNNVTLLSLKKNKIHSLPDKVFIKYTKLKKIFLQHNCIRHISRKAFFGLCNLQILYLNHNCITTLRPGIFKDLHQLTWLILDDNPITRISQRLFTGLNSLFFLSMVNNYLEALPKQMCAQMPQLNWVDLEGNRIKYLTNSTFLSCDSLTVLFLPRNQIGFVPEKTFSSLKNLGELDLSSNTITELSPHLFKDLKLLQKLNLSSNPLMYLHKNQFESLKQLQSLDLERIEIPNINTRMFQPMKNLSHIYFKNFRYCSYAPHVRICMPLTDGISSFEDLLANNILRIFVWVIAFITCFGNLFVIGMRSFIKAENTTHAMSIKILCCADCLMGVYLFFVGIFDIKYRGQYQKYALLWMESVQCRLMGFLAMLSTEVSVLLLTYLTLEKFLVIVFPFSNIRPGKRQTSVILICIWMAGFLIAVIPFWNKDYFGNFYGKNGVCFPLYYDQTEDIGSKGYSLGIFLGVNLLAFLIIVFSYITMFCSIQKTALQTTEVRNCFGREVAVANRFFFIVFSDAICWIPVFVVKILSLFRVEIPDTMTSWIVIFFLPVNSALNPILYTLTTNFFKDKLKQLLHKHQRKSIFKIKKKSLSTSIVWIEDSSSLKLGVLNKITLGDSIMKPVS

The target in one assay is T1, human RXFP1. The assay can be described thus: cell-based or functional assay.
On to B1, for which the “EC50 hRXFP1 (M), cAMP HTRF assay” value turned out to be 5.68e-11 M.
Same read-out and setting: the value for B2 was 1.88e-11 M; that for B3 was 2.81e-11 M; that for B4 was 2.89e-11 M.
The same measure, in the same setting: the value for B5 was 4.51e-11 M.
The same measure, in the same setting: the value for B6 was 1.72e-09 M; that for B7 was 3.87e-11 M.

In another assay the target is T2, mouse RXFP1. The assay can be described thus: cell-based or functional assay.
For the molecule B1, the “EC50 mRXFP1 (M), cAMP HTRF assay” value turned out to be 4.9e-11 M.
Turning to B2, the “EC50 mRXFP1 (M), cAMP HTRF assay” value amounted to 1.51e-11 M.
As for B3, the “EC50 mRXFP1 (M), cAMP HTRF assay” value stood at 1.34e-11 M.
The same measure, in the same setting: the value for B4 was 1.59e-11 M; that for B5 was 4.73e-11 M; that for B6 was 8.22e-10 M.
On the same count and under the same terms, then B7, with 3.27e-11 M.

The next assay concerns the target human RXFP2 (human, UniProt Q8WXD0 1-754). The assay can be described thus: cell-based or functional assay.
Turning to B1, the “EC50 hRXFP2 (M), cAMP HTRF assay” value stood at 3.81e-08 M.
Still for that read-out and setting: the value for B2 was 3.39e-08 M.
The same measure, in the same setting: then B3, with 2.42e-08 M; and B4, with 1.53e-08 M.
Still for that read-out and setting: the value for B5 was 4.92e-08 M; that for B7 was 6.48e-08 M.
